The values that follow are results of earlier work, collected in paper PMC7481795.

In general, Kd refers to the constant that tells how readily two partners part at equilibrium.

Read-outs that look alike come from different tables or passages of the source.

Series [1] addresses β-glucuronidase (Homo sapiens) (UniProt P08236).
For series [2] the target is unchanged. This is another data set of the same source.

Chain of β-glucuronidase (Homo sapiens) (P08236 23-651): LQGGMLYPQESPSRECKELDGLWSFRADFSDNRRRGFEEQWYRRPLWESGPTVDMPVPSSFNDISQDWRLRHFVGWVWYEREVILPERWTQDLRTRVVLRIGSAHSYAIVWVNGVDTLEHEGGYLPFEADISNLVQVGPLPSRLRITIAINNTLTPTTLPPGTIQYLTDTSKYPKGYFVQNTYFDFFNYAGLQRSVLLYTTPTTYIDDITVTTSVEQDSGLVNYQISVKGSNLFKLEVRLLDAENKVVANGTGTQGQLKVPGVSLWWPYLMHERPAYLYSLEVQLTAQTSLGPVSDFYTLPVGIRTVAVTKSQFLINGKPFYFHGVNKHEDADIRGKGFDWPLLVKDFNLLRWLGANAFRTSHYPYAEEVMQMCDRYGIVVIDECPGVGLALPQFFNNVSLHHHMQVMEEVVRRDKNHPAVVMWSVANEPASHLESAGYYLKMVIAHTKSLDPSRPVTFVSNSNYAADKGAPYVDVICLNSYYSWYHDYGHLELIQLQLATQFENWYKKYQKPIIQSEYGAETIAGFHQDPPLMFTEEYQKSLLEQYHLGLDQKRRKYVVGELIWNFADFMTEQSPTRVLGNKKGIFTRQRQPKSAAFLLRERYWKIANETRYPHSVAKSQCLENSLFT
Chain of cation-independent mannose 6-phosphate receptor domain 3 (P08169 332-477): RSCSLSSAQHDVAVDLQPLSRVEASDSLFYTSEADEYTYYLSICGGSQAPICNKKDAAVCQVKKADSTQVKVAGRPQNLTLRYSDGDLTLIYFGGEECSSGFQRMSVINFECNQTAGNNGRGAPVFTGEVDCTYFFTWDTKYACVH
Chain of cation-independent mannose 6-phosphate receptor domains 1-3 (P08169 45-477): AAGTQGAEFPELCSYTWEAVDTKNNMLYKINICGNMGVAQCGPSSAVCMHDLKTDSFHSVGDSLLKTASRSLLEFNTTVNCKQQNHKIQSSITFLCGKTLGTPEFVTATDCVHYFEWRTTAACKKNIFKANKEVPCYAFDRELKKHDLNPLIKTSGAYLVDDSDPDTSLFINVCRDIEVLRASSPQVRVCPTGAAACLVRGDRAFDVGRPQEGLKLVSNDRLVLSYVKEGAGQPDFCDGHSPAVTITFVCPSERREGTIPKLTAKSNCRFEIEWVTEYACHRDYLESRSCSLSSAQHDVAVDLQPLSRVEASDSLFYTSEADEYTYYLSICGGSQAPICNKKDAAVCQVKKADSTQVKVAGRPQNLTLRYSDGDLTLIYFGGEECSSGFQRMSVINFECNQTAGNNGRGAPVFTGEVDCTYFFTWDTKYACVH

Regarding “cation-independent mannose 6-phosphate receptor domain 3 (from UniProt P08169)”, the Kd in series [1] was 500 nM.
With “cation-independent mannose 6-phosphate receptor domains 1-3 (from UniProt P08169)”, the Kd in series [2] is 0.5 nM.
